These results are taken from patent US20180094075A1 (Pfizer, published 2018).

Assay [1] concerns the target human PTK7 expressed on cells (cancer cell lines with endogenous PTK7; HEK293T-PTK7 over-expressing cells) (human) (UniProt Q13308). In words: flow cytometry, H446 cells, 10 µg/mL.
The target is the same in assay [2]. Nature of the assay: flow cytometry, H661 cells, 10 µg/mL. (In general: A flow cytometer gives signals particle by particle.)
The target is the same in assay [3]. In words: flow cytometry, U2OS cells, 10 µg/mL.
Assay [4] has as its target T1, human PTK7 expressed on cells (cancer cell lines with endogenous PTK7; HEK293T-PTK7 over-expressing cells) (human, UniProt Q13308 31-1070).
T1 sequence: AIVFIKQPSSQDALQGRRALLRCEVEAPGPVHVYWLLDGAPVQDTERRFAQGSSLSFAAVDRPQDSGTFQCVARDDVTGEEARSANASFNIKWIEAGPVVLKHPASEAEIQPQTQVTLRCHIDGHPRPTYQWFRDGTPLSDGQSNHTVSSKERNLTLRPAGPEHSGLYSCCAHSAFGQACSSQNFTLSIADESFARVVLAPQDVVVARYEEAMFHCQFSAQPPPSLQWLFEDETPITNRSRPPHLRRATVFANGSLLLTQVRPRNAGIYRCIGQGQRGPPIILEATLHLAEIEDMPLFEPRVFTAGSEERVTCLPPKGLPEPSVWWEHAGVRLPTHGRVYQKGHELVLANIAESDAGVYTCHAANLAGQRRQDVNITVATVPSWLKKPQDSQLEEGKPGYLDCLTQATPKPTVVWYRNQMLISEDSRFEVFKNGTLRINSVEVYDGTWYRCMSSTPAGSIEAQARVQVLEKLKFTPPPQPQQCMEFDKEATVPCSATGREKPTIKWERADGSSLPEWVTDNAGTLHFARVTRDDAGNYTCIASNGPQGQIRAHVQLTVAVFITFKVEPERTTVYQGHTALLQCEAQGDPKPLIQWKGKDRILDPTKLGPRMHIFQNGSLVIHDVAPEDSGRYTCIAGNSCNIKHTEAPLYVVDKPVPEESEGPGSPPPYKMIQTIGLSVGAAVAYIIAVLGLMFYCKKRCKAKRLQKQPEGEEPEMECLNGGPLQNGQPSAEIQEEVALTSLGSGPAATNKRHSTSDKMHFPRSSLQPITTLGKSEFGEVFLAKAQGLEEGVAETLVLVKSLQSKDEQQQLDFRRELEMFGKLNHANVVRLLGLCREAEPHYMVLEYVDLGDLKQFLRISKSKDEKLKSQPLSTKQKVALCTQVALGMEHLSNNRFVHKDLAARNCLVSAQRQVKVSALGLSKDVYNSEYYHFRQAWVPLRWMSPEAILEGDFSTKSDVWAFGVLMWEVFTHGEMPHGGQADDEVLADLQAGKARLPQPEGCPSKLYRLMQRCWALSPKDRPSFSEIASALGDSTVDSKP
In words: cell-based or functional assay.

For Control mAb (Table 7) (antibody), the MFI was 11 in assay [1], 4.2 in assay [2] and 5.3 in assay [3].

B1: hu23 (humanized anti-PTK7 antibody) (antibody, V domains shown)
VH: QITLKESGPTLVKPTQTLTLTCTFSGFSLSTSNMGVGWIRQPPGKALEWLAHIWWDDDKYYSPSLKSRLTITKDTSKNQVVLTMTNMDPVDTATYYCVRSNYGYAWFAYWGQGTLVTVSS
VL: DIQMTQSPSSLSASVGDRVTITCKASQDIYPYLNWFQQKPGKAPKTLIYRTNRLLDGVPSRFSGSGSGTDFTFTISSLQPEDIATYYCLQYDEFPLTFGAGTKLEIKR
For the molecule B1, in assay [4], the “IC50 of cell viability (MTS), antibody + saporin-conjugated anti-human Fab (Fab-ZAP), DMS114 cells” value came to 10.3 ng/mL and the “IC50 of cell viability (MTS), antibody + saporin-conjugated anti-human Fab (Fab-ZAP), H446 cells” value came out at 44.7 ng/mL.
